Biological target: the molecule itself
Experiment: crystal structure; hGSTA1 (13 mg/ml) mixed with GSH and PEITC, 6 h at 4°C; sitting drop, 20% PEG 3350, 0.2 M sodium acetate; 1.93 Å, space group C2

B1: human alpha class glutathione S-transferase of subunit type 1 (hGSTA1), Cys112-PEITC adduct, with GS-PEITC bound (enzyme)
chain: AEKPKLHYFNARGRMESTRWLLAAAGVEFEEKFIKSAEDLDKLRNDGYLMFQQVPMVEIDGMKLVQTRAILNYIASKYNLYGKDIKERALIDMYIEGIADLGEMILLLPVCPPEEKDAKLALIKEKIKNRYFPAFEKVLKSHGQDYLVGNKLSRADIHLVELLYYVEELDSSLISSFPLLKALKTRISNLPTVKKFLQPGSPRKPPMDEKSLEEARKIFRF
modifications: Cys112 side chain covalently modified by PEITC (phenethyl isothiocyanate)
notes: glutathione S-transferase alpha 1 (hGSTA1), human; In the crystal the active site holds the small-molecule product GS-PEITC; also called hGSTA1-PEITC; hGSTA1:GS-PEITC; source: prepared as described [11,12]
- binding result: binds
